Measurements taken from article PMC4324353 (Journal of molecular biology, 2014).

B1: SC[gs]D (Spir SC and SD with Linker 3 replaced by five Gly-Ser repeats) (domain or fragment)
chain: KKDAHAMILEFIRSRPPLKKAGSGSGSGSGSPREQLMESIRKGKELKQITPPE
B2: SD3C (Spir SD and SC reversed around Linker 3) (domain or fragment)
chain: PREQLMESIRKGKELKQISDRQLGPPRMCEPSKKDAHAMILEFIRSRPPLKKA

Target: latrunculin B bound actin (A. castellani actin monomer) (A. castellani)
Assay: fluorescence polarisation

Row | Binder | stoichiometry N
1 | B1 | 1 actin monomer per construct
2 | B2 | 1 actin monomer per construct
